Measurements reported in US20050207981A1, “Compositions and methods for determining substrate specificity of hydrolytic enzymes” (The Regents of the University of California, priority 2003, published 2005).

System: C[C@H](NC(=O)[C@H](C)NC(=O)[C@H](CCCNC(=N)N)NC(=O)[C@H](CCCNC(=N)N)NC(=O)c1cc(F)ccc1O)C(N)=O
Test: purified protein, by the assay type
Settings: other: detailed kinetic analysis of substrate hydrolysis; pH 8.0; 25.0 °C
Experimental: The combinatorial tetrapeptide library thus obtained was used to assay the substrate specificity of bovine p-chymotrypsin as follows. A 1 μL aliquot of each library member in DMSO was diluted to 100 μL in one well of a black polystyrene 96-well plate with a solution containing 50 mM Tris-HCl pH 8.0, 100 mM NaCl, 20 mM CaCl2, 10 μM [Tb(EDTA)]+and 10 μM enzyme. The resulting mixture was allowed to react at 25° C. for 30 min. Hydrolysis was followed by observing the increase in fluorescence at 546 nm upon excitation at 250 nm.
To elucidate any cooperativity between subsites, a series of single substrates was synthesized and assayed with chymotrypsin. […] Peptide sequences were designed to compare the most reactive amino acid in each sublibrary (Arg) with an amino acid with moderate reactivity and neutral functionality (Ala). Alanine, a small, neutral amino acid, was included in the P4′ position in all peptides, providing extended backbone interactions to enhance turnover. The kinetic data obtained from single substrate hydrolysis were analyzed using the standard Michaelis-Menten equation.

## bovine α-chymotrypsin (Bos taurus)
  Km: 500 ± 100 µM
  kcat: 2.2 ± 0.2 s⁻¹
  kcat/Km: 4400 ± 1000 M⁻¹ s⁻¹
